Results: patent US20020039573A1
Values belong to the substance of their own block, whether it stands above or below them.

Legend:
Experiment in all cases: cell-based or functional assay
[1] = biological target: HLA-A, -B and -C
[2] = biological target: HLA-A2 (human)
[3] = biological target: HLA-B and -C

γ-IFN Elispot, ICD-specific CD8+ T cell line on Fibro/ICD stimulators pre-incubated with antibody (50 µg/mL) (Elispot spots per well) [1]: 4
γ-IFN Elispot, clone 17D5 on Fibro/ICD stimulators, antibody at 25 µg/mL (Elispot spots per well) [1]: 3
γ-IFN Elispot, clone 17D5 on Fibros-H2N stimulators, antibody at 25 µg/mL (Elispot spots per well) [1]: 0
Substance: monoclonal antibody W6/32

γ-IFN Elispot, ICD-specific CD8+ T cell line on Fibro/ICD stimulators pre-incubated with antibody (50 µg/mL) (Elispot spots per well) [2]: 213
γ-IFN Elispot, clone 17D5 on Fibro/ICD stimulators, antibody at 25 µg/mL (Elispot spots per well) [2]: 165
γ-IFN Elispot, clone 17D5 on Fibros-H2N stimulators, antibody at 25 µg/mL (Elispot spots per well) [2]: 98
Substance: monoclonal antibody BB7.2

γ-IFN Elispot, ICD-specific CD8+ T cell line on Fibro/ICD stimulators pre-incubated with antibody (50 µg/mL) (Elispot spots per well) [3]: 5
γ-IFN Elispot, clone 17D5 on Fibro/ICD stimulators, antibody at 25 µg/mL (Elispot spots per well) [3]: 1
γ-IFN Elispot, clone 17D5 on Fibros-H2N stimulators, antibody at 25 µg/mL (Elispot spots per well) [3]: 0
Substance: monoclonal antibody BB123.2
